B1: 6xHis-tagged PDZ1 domain of ZO-1 (aa 19-113) (domain or fragment)
chain: WEQHTVTLHRAPGFGFGIAISGGRDNPHFQSGETSIVISDVLKGGPAEGQLQENDRVAMVNGVSMDNVEHAFAVQQLRKSGKNAKITIRRKKKVQ
B2: 6xHis-tagged PDZ1 domain of ZO-3 (aa 5-96) (domain or fragment)
chain: TIWEQHTATLYKDPRRGFGIAVSGGHDRASGSVVVSDVVPGSPAEGRLRTGDHIVMVNGVSVENVTSAFAIQILKTCTKTANVTVKRPRRVQ
B3: 6xHis-tagged PDZ1 domain of ZO-2 (aa 4-100) (domain or fragment)
chain: VIWEQYTVTLQKDSKRGFGIAVSGGRDNPHFENGETSIVISDVLPGGPADGLLQENDRVVMVNGTPMEDVLHSFAVQQLRKSGKIAAIVVKRPRKVQ

The target in the test is GST fusion protein with the cytoplasmic domain of claudin-1 (UniProt O88551). The test is described as follows: pull-down.
Chain of UniProt O88551 (O88551 whole entry, the tested form may be a part): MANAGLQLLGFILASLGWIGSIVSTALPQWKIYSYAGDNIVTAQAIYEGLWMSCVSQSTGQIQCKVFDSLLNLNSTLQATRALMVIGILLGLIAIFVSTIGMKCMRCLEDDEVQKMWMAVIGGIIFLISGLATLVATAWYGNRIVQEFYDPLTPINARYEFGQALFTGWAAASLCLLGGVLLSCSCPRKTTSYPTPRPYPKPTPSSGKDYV
In the case of B1, the dissociation constant (Kd) (as a rule, the free concentration of one partner at which half of the binding sites on the other are occupied at equilibrium, for simple one-to-one binding) is 13 nM.

B2 registered a Kd of 18 nM.

For the molecule B3, the Kd was 11 nM.

(Values after article PMC2168087.)
